{
  "source": "paper doi:10.1101/2025.11.26.690829",
  "origin": "cited, not measured here",
  "molecular_target": "TDP-43 NTD (Homo sapiens) (UniProt Q13148)",
  "data": [
    {"substance": "TDP-43 NTD (from UniProt Q13148)", "values": [
      {"measurement": "Kd", "result": 2000, "unit": "nM"}
    ]}
  ]
}
